Tests used:
human UGTs = assay: Recombinant human UGT screen: glucuronidation rates across human UGTs; assay type: biochemical; conditions: 10 μM aglycone, control substrates
Description: (§1) Recombinant human UGTs 1A1, 1A3, 1A6, 1A7, 1A8, 1A9, 1A10, 2A1, 2A2, 2A3, 2B4, 2B10, 2B7, and 2B17 were produced, as His-tagged proteins, in baculovirus-infected insect cells as previously described.[37]−[39] The relative expression level of each of these recombinant UGTs was evaluated by immunodetection, using monoclonal antibody against the His-tag, as described elsewhere.[40] A numeric value of 1.0 was given to the expression level of UGT1A8 and the relative expression level of each of the other UGTs was related to this value. Normalized activities were obtained by dividing the glucuronidation rate values by the relative expression level of the tested UGT. In addition, UGTs 1A4, 2B10, and 2B15 were purchased from Corning Life Sciences (New York) and are marked, in Figure 5, with a “C” to indicate that they are commercial enzymes. The expression levels of the UGTs in the commercial samples could not be determined, so their protein concentration was used to calculate the reaction rate.
(§2) The incubation mixtures for glucuronidation assays contained 100 mM Tris-HCl buffer pH 7.4, 2.5 mM MgCl2, 0.5 mM UDPGA, recombinant UGT, or microsomes as the enzyme source and 0–15 μM of the test aglycone substrate. When the incubation mixtures contained microsomes, alamethicin was used at a final concentration of 12.5 μg/mL, but it was not included in the recombinant enzyme assays.[43] In the first experiments three negative control samples were tested, namely (i) without the substrate 7-hydroxycoumarin derivative, (ii) without the cofactor UDPGA, or (iii) without the enzyme source. In subsequent experiments, the control samples lacked the enzyme source since it gave the highest fluorescence background. Preliminary experiments were done under different conditions than most of the later assays, namely in 2.5 mL of 100 mM phosphate buffer pH 7.4, containing 500 μg pig liver microsomes, 1.0 μM compound 6 and 0.5 mM UDPGA, at room temperature. Fluorescence spectra (excitation 200–420 nm; emission 400–600 nm) or fluorescence decrease at 390 nm excitation and 460 nm emission, were measured in these preliminary experiments, using a Shimadzu RF-5000 spectrophotofluorometer.
(§3) Most of the glucuronidation assays were carried out in 96 multiwell plate format, and incubations were carried out in 100 μL and at 37 °C, in the presence of Tris–HCl buffer pH 7.4, UDPGA, and the tested 7-hydroxycoumarin derivative, at the indicated concentrations. Fluorescence decline in the multiwell plate experiments was monitored every other minute, for 40 min, using an excitation filter at 405 nm and detection at 460 nm, in a Victor2 1420 Multilabel counter (PerkinElmer, Life Sciences, Turku, Finland). The fluorescence values were transformed into molarity using the aglycone substrates for making the respective standard curves. Slopes of the substrate concentration decrease per minute were calculated using linear regression analysis, in which the linear part of the kinetic assay indicated the glucuronidation rate. Enzyme catalyzed glucuronidation rate was calculated by subtracting the blank value from the full reaction value. The intra-assay variability of the kinetic assays was 6% when compound 6 was used as the aglycone substrate. Kinetic analyses were also performed in the same 96 multiwell plates format, with excitation filter at 405 nm and detection at 460 nm, using 6–8 different substrate concentrations per substrate and two different protein concentrations for both the wild-type and mutant UGT1A10. The higher concentrations, 13.5 mg/L for UGT1A10 and 12.0 mg/L for the UGT1A10 mutant, were used when the substrates were HFC, compounds 4 and 6, whereas the lower protein concentrations, 6.75 and 6.0 mg/L for UGT1A10 and the mutant, respectively, were used when the substrates were compounds 1, 2, 3, and 5.

[1] = system: human intestinal microsomes (HIM); assay: Glucuronidation by human intestinal microsomes (HIM); assay type: in vitro ADME; conditions: 10 μM aglycone
Description: A commercial HLM pool (cat no:452210, BD Gentest, Bedford, MA) and human intestine microsomes (HIM) pool (lot. no 1110189, XenoTech, Kansas City, KS) were purchased. Pig liver samples were prepared from untreated female pigs that were used for practicing surgical procedures at the University of Kuopio (currently: University of Eastern Finland, Kuopio campus). Other animal liver microsomes were prepared as described previously.[41] The Ethics Committee for Animal Experiments, University of Kuopio, approved these experiments.
as §2, §3

[2] = substrate: CN(C)c1ccc(-c2cc3ccc(O)cc3oc2=O)cc1; assay: Glucuronidation kinetics by recombinant wild-type UGT1A10 (fluorescence decrease, 96-well plate); assay type: biochemical, human; conditions: other: UGT1A10 wild-type, 7-hydroxyl glucuronidation, Michaelis–Menten, one experiment; pH 7.4; 37.0 °C
Description: as §1, §2, §3

[3] = substrate: O=c1oc2cc(O)ccc2cc1-n1cncn1; assay: as above; assay type: biochemical, human; conditions: other: UGT1A10 wild-type, 7-hydroxyl glucuronidation, Michaelis–Menten, one experiment; pH 7.4; 37.0 °C
Description: as §1, §2, §3

[4] = substrate: O=c1cc(C(F)(F)F)c2ccc(O)cc2o1; assay: as above; assay type: biochemical, human; conditions: other: UGT1A10 wild-type, 7-hydroxyl glucuronidation, Michaelis–Menten, one experiment; pH 7.4; 37.0 °C
Description: as §1, §2, §3

[5] = substrate: COc1ccc(-c2cc3ccc(O)cc3oc2=O)cc1; assay: as above; assay type: biochemical, human; conditions: other: UGT1A10 wild-type, 7-hydroxyl glucuronidation, Michaelis–Menten, one experiment; pH 7.4; 37.0 °C
Description: as §1, §2, §3

[6] = substrate: Cc1ccc(-c2cc3ccc(O)cc3oc2=O)cc1; assay: as above; assay type: biochemical, human; conditions: other: UGT1A10 wild-type, 7-hydroxyl glucuronidation, Michaelis–Menten, one experiment; pH 7.4; 37.0 °C
Description: as §1, §2, §3

[7] = substrate: O=c1oc2cc(O)ccc2cc1-c1ccc(F)cc1; assay: as above; assay type: biochemical, human; conditions: other: UGT1A10 wild-type, 7-hydroxyl glucuronidation, Michaelis–Menten, one experiment; pH 7.4; 37.0 °C
Description: as §1, §2, §3

[8] = substrate: O=c1oc2cc(O)ccc2cc1-c1ccc(O)cc1; assay: as above; assay type: biochemical, human; conditions: other: UGT1A10 wild-type, 7-hydroxyl glucuronidation, Michaelis–Menten, one experiment; pH 7.4; 37.0 °C
Description: as §1, §2, §3

[9] = substrate: CN(C)c1ccc(-c2cc3ccc(O)cc3oc2=O)cc1; assay: Glucuronidation kinetics by UGT1A10 mutant 1A10-H210M (fluorescence decrease, 96-well plate); assay type: biochemical, human; conditions: other: UGT1A10mutant (H210M), 7-hydroxyl glucuronidation, one experiment; pH 7.4; 37.0 °C
Description: (§4) The UGT1A10 mutant 1A10-H210 M was prepared according to the QuikChange methodology, using the cloned UGT1A10 in pFastBac[42] as a template and the following two oligonucleotides:
(§5) The entire coding sequence of UGT1A10 in the mutant clone was sequenced, and subsequently, recombinant baculovirus was prepared and used to express the mutant enzyme in baculovirus-infected SF9 insect cells.
as §2, §3

[10] = substrate: O=c1oc2cc(O)ccc2cc1-n1cncn1; assay: as above; assay type: biochemical, human; conditions: other: UGT1A10mutant (H210M), 7-hydroxyl glucuronidation, one experiment; pH 7.4; 37.0 °C
Description: as §4, §5, §2, §3

[11] = substrate: O=c1cc(C(F)(F)F)c2ccc(O)cc2o1; assay: as above; assay type: biochemical, human; conditions: other: UGT1A10mutant (H210M), 7-hydroxyl glucuronidation, one experiment; pH 7.4; 37.0 °C
Description: as §4, §5, §2, §3

[12] = substrate: COc1ccc(-c2cc3ccc(O)cc3oc2=O)cc1; assay: as above; assay type: biochemical, human; conditions: other: UGT1A10mutant (H210M), 7-hydroxyl glucuronidation, one experiment; pH 7.4; 37.0 °C
Description: as §4, §5, §2, §3

[13] = substrate: Cc1ccc(-c2cc3ccc(O)cc3oc2=O)cc1; assay: as above; assay type: biochemical, human; conditions: other: UGT1A10mutant (H210M), 7-hydroxyl glucuronidation, one experiment; pH 7.4; 37.0 °C
Description: as §4, §5, §2, §3

[14] = substrate: O=c1oc2cc(O)ccc2cc1-c1ccc(F)cc1; assay: as above; assay type: biochemical, human; conditions: other: UGT1A10mutant (H210M), 7-hydroxyl glucuronidation, one experiment; pH 7.4; 37.0 °C
Description: as §4, §5, §2, §3

[15] = substrate: O=c1oc2cc(O)ccc2cc1-c1ccc(O)cc1; assay: as above; assay type: biochemical, human; conditions: other: UGT1A10mutant (H210M), 7-hydroxyl glucuronidation, one experiment; pH 7.4; 37.0 °C
Description: as §4, §5, §2, §3

O=c1ccc2ccc(O)cc2o1 [7-hydroxycoumarin, reference compound]
UGT(s) that primarily glucuronidate the substrate (human UGTs): UGT1A6
Glucuronidation rate, HLM compared with HIM (in words) [1]: much higher rates by HLM than by HIM

B1: UGT1A10 (Homo sapiens) (protein)
chain: GKLLVVPMDGSHWFTMQSVVEKLILRGHEVVVVMPEVSWQLERSLNCTVKTYSTSYTLEDQNREFMVFAHAQWKAQAQSIFSLLMSSSSGFLDLFFSHCRSLFNDRKLVEYLKESSFDAVFLDPFDTCGLIVAKYFSLPSVVFTRGIFCHHLEEGAQCPAPLSYVPNDLLGFSDAMTFKERVWNHIVHLEDHLFCQYLFRNALEIASEILQTPVTAYDLYSHTSIWLLRTDFVLDYPKPVMPNMIFIGGINCHQGKPLPMEFEAYINASGEHGIVVFSLGSMVSEIPEKKAMAIADALGKIPQTVLWRYTGTRPSNLANNTILVKWLPQNDLLGHPMTRAFITHAGSHGVYESICNGVPMVMMPLFGDQMDNAKRMETKGAGVTLNVLEMTSEDLENALKAVINDKSYKENIMRLSSLHKDRPVEPLDLAVFWVEFVMRHKGAPHLRPAAHDLTWYQYHSLDVIGFLLAVVLTVAFITFKCCAYGYRKCLGKKGRVKKAHKSKTH
notes: His-tag; made in house; host or cells: baculovirus-infected insect cells
Km [2]: 2.8 (0–6.5) μM
Vmax [2]: 0.0153 µmol/min/mg
Vmax/Km [2]: 5500 µL/min/mg
Km [3]: 7.0 (3.1–11) μM
Vmax [3]: 0.0053 µmol/min/mg
Vmax/Km [3]: 760 µL/min/mg
Km [4]: 14 (10.7–17.3) μM
Vmax [4]: 0.0151 µmol/min/mg
Vmax/Km [4]: 1100 µL/min/mg
Km [5]: 8.3 (0–31.4) μM
Vmax [5]: 0.0223 µmol/min/mg
Vmax/Km [5]: 2700 µL/min/mg
Km [6]: 2.8 (0.7–4.9) μM
Vmax [6]: 0.0162 µmol/min/mg
Vmax/Km [6]: 5800 µL/min/mg
Km [7]: 10.7 (1.7–19.6) μM
Vmax [7]: 0.031 µmol/min/mg
Vmax/Km [7]: 2900 µL/min/mg
Km [8]: 2.2 (1–3.4) μM
Vmax [8]: 0.0059 µmol/min/mg
Vmax/Km [8]: 2700 µL/min/mg

B2: UGT1A10 mutant 1A10-H210M (Homo sapiens; H210M) (protein)
chain: GKLLVVPMDGSHWFTMQSVVEKLILRGHEVVVVMPEVSWQLERSLNCTVKTYSTSYTLEDQNREFMVFAHAQWKAQAQSIFSLLMSSSSGFLDLFFSHCRSLFNDRKLVEYLKESSFDAVFLDPFDTCGLIVAKYFSLPSVVFTRGIFCHHLEEGAQCPAPLSYVPNDLLGFSDAMTFKERVWNMIVHLEDHLFCQYLFRNALEIASEILQTPVTAYDLYSHTSIWLLRTDFVLDYPKPVMPNMIFIGGINCHQGKPLPMEFEAYINASGEHGIVVFSLGSMVSEIPEKKAMAIADALGKIPQTVLWRYTGTRPSNLANNTILVKWLPQNDLLGHPMTRAFITHAGSHGVYESICNGVPMVMMPLFGDQMDNAKRMETKGAGVTLNVLEMTSEDLENALKAVINDKSYKENIMRLSSLHKDRPVEPLDLAVFWVEFVMRHKGAPHLRPAAHDLTWYQYHSLDVIGFLLAVVLTVAFITFKCCAYGYRKCLGKKGRVKKAHKSKTH
notes: His-tag; made in house; host or cells: baculovirus-infected SF9 insect cells
Km [9]: 4.7 (1.5–7.9) μM
Vmax [9]: 0.0065 µmol/min/mg
Vmax/Km [9]: 1400 µL/min/mg
Km [10]: 26.8 (0–80) μM
Vmax [10]: 0.0063 µmol/min/mg
Vmax/Km [10]: 240 µL/min/mg
Km [11]: 32.9 (0–102) μM
Vmax [11]: 0.0117 µmol/min/mg
Vmax/Km [11]: 360 µL/min/mg
Km [12]: 3.8 (0.97–6.7) μM
Vmax [12]: 0.0095 µmol/min/mg
Vmax/Km [12]: 2500 µL/min/mg
Km [13]: 4.6 (1.5–7.8) μM
Vmax [13]: 0.0059 µmol/min/mg
Vmax/Km [13]: 1300 µL/min/mg
Km [14]: 3.5 (0–9.3) μM
Vmax [14]: 0.0087 µmol/min/mg
Vmax/Km [14]: 2500 µL/min/mg
Km [15]: 7.8 (5.5–10.2) μM
Vmax [15]: 0.0063 µmol/min/mg
Vmax/Km [15]: 810 µL/min/mg

— publication PMC6150735, “Molecular Docking-Based Design and Development of a Highly Selective Probe Substrate for UDP-glucuronosyltransferase 1A10” (Molecular Pharmaceutics, 2018)
